The chains are these.
B1: VH:VL chains; a variant is named by its letters at X, in order (parent)
chain 1: QVQLVQSGAEVKKPGASVKVSCKASGYTFTDYXMHWVRQAPGQGLEWMGXVNPNXXXTTYNQKFEGRVTMTTDTSTSTAYMELRSLRSDDTAVYYCARXNXLDXWGQGTTVTVSS
chain 2: DIQMTQSPSSLSASVGDRVTITCSVSSSVSSIYLHWYQQKPGKAPKLLIYSTSNLASGVPSRFSGSGSGTDFTLTISSLQPEDFATYYCQVYSGYPLTFGGGTKVEIK

The variants in the data set derive from B1. Nature of the data set: yeast display scFab, FACS + sequencing. The procedure, abridged:
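The non-specific binding call was based on sorted and sequenced yeast displaying a heavy-chain CDR mutant scFab library. Labelling used anti-Myc with biotinylated ovalbumin (260 μg/mL in PBSB, 3 h, room temperature) or soluble membrane proteins (130 μg/mL, 20 min on ice), and FACS collected the top 25% and bottom 10% of binders in two replicates. Positive meant present in ≥3 of 4 pooled positive samples and in no negatives, and negative meant the converse.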
As to YRGRGYGS, the non-specific binding call was “binds”.

Consider YRGRGYGF, for which the non-specific binding call was “binds”.

YRGRGYGA: the non-specific binding call is “binds”.

On to YRGRSALA, for which the non-specific binding call is reported as “binds”.

For VRGRGYAA, the non-specific binding call was “binds”.

Turning to YRGRSSSV, the non-specific binding call was “binds”.

Turning to YRGRSFGV, the non-specific binding call is “binds”.

For the variant DRKGGDWS, the non-specific binding call was “binds”.

In the case of YRGRTAAD, the non-specific binding call is “binds”.

As for YRGRTAAV, the non-specific binding call was “binds”.

Take YRGRTAAA: the non-specific binding call was “binds”.

Take YRGRTAAY: the non-specific binding call is “binds”.

On to YRGRTAAF, for which the non-specific binding call is listed as “binds”.

With YRKESAVY, the non-specific binding call is on record as “binds”.

As for YRKENYGD, the non-specific binding call is reported as “binds”.

On to YRKEAAAA, for which the non-specific binding call is listed as “binds”.

Turning to YRKGAAVV, the non-specific binding call was “binds”.

For FRGRSYVD, the non-specific binding call is on record as “binds”.

Consider YRKGGDLY, for which the non-specific binding call is reported as “no binding”.

SRKGAASD: the non-specific binding call is “binds”.

As for YRGRGYVS, the non-specific binding call is “binds”.

Take VRGRSAWS: the non-specific binding call is listed as “no binding”.

Turning to VRGTDAVV, the non-specific binding call was “no binding”.

Turning to YRGRGYSV, the non-specific binding call is on record as “binds”.

For VRGTGDWD, the non-specific binding call is recorded as “no binding”.

With ARGRSDAV, the non-specific binding call is reported as “no binding”.

In the case of YRGRGVAV, the non-specific binding call was “binds”.

Turning to FRGRGYVV, the non-specific binding call is given as “binds”.

Turning to FRGRGYVA, the non-specific binding call was “binds”.

Turning to SRGRGYSV, the non-specific binding call is “binds”.

With FRKGGAGS, the non-specific binding call is reported as “binds”.

As for VRGRSDVF, the non-specific binding call is listed as “no binding”.

YRGRGVGY: the non-specific binding call is given as “binds”.

Turning to YRGRGVGD, the non-specific binding call was “binds”.

Consider YRGRGVGA, for which the non-specific binding call is listed as “binds”.

With YRGRGVGF, the non-specific binding call is given as “binds”.

As for YRGRGVGS, the non-specific binding call is listed as “binds”.

In the case of VRGTGSAD, the non-specific binding call is reported as “binds”.

Turning to FRGRSSGV, the non-specific binding call is recorded as “binds”.

Take VRGRGVAV: the non-specific binding call is “binds”.

Regarding FRGTSFGD chain 1 T58I, the non-specific binding call is “binds”.

Turning to YRKEGAAA, the non-specific binding call is given as “binds”.

Consider YRKGDSGD, for which the non-specific binding call is “binds”.

Turning to YRKGDAGD, the non-specific binding call was “binds”.

For the variant VRGRSSVV, the non-specific binding call is listed as “no binding”.

Take VRGTGSGA: the non-specific binding call was “binds”.

Turning to YRKGGAGS, the non-specific binding call was “binds”.

Consider YRKGGAGF, for which the non-specific binding call is “binds”.

For the variant VRGTGVAV, the non-specific binding call was “binds”.

Take YRKEAAWV: the non-specific binding call is listed as “binds”.

For the variant YRGRGVWV, the non-specific binding call is on record as “binds”.

In the case of VRGRGVGY, the non-specific binding call is given as “binds”.

In the case of FRGRGYWV, the non-specific binding call was “binds”.

As for FRKGDASD, the non-specific binding call is “binds”.

Take SRGRGYGD: the non-specific binding call is listed as “binds”.

As to VRGRSSAA, the non-specific binding call was “binds”.

Consider YRGRSSAA, for which the non-specific binding call is “binds”.

Take VRGRGVSY: the non-specific binding call is “binds”.

Consider YRGRGVLF, for which the non-specific binding call is recorded as “binds”.

SRKEGAAY: the non-specific binding call is given as “no binding”.

For FRGTGSWA, the non-specific binding call is reported as “binds”.

Regarding SRKGGDAA, the non-specific binding call is reported as “no binding”.

As to VRGRSSGS, the non-specific binding call is recorded as “binds”.

Consider FRGRSSLA, for which the non-specific binding call is on record as “binds”.

Consider YRGRTSLD, for which the non-specific binding call is “binds”.

As for SRGRGVGA, the non-specific binding call is “binds”.

As for VRGTGSWD, the non-specific binding call is recorded as “binds”.

As for YRGRSFAV, the non-specific binding call is “binds”.

As for FRGRSSVA, the non-specific binding call is recorded as “binds”.

Turning to YRKGASVD, the non-specific binding call is recorded as “binds”.

As to FRKAAVAV, the non-specific binding call is given as “binds”.

Take VRGTDAGV: the non-specific binding call is recorded as “no binding”.

For ARGRSDVA, the non-specific binding call was “no binding”.

With VRGRGYGV, the non-specific binding call was “binds”.

With VRGTGAVY, the non-specific binding call is recorded as “binds”.

Take YRGRGVSS: the non-specific binding call is “binds”.

With YRGRGVSD, the non-specific binding call was “binds”.

VRGTGFGA: the non-specific binding call is listed as “binds”.

As to FRKGGAAA, the non-specific binding call is listed as “binds”.

As for YRKGAALA, the non-specific binding call is listed as “binds”.

Take FRGRSSAF: the non-specific binding call is on record as “binds”.

For FRGRSSAA, the non-specific binding call is recorded as “binds”.

For YRGRSAGY, the non-specific binding call is “binds”.

In the case of YRGRSAGA, the non-specific binding call is “binds”.

For YRGRSAGS, the non-specific binding call is reported as “binds”.

For YRGRSAGV, the non-specific binding call is reported as “binds”.

For the variant YRGRGYWV, the non-specific binding call is on record as “binds”.

Take YRGRGYWA: the non-specific binding call is “binds”.

YRGRGYWY: the non-specific binding call is given as “binds”.

For FRGRGYAV, the non-specific binding call is reported as “binds”.

YRGRGYAY: the non-specific binding call was “binds”.

Regarding YRGRGYAA, the non-specific binding call is recorded as “binds”.

Regarding VRGRSDWV, the non-specific binding call is listed as “no binding”.

With YRGTGAGV, the non-specific binding call is recorded as “binds”.

For the variant YRGRTAGV, the non-specific binding call was “binds”.

Take FRGTGSGD: the non-specific binding call was “binds”.

On to SRGRGVLV, for which the non-specific binding call is recorded as “binds”.

As for FRGRGYGA, the non-specific binding call was “binds”.

As for YRKGGAVV, the non-specific binding call was “binds”.

Take YRKGGAVD: the non-specific binding call is recorded as “binds”.

In the case of YRKGAASD, the non-specific binding call is given as “binds”.

For the variant DRGRSDVA, the non-specific binding call is given as “no binding”.

On to YRKGASAF, for which the non-specific binding call is reported as “binds”.

For FRGRGVGD, the non-specific binding call is “binds”.

In the case of FRGRGVGA, the non-specific binding call is given as “binds”.

Take YRKGGAAY: the non-specific binding call is “binds”.

Consider YRKGGAAV, for which the non-specific binding call is “binds”.

With YRKGGAAS, the non-specific binding call is on record as “binds”.

Consider YRGRSSLY, for which the non-specific binding call was “binds”.

As for YRGRGVVY, the non-specific binding call is “binds”.

For the variant YRGRGVVD, the non-specific binding call is “binds”.

As to YRGRSASY, the non-specific binding call is on record as “binds”.

With YRGRSASS, the non-specific binding call was “binds”.

As to YRGRSASV, the non-specific binding call is recorded as “binds”.

For YRGTGSVD, the non-specific binding call was “binds”.

Regarding YRGRSAAY, the non-specific binding call is on record as “binds”.

Regarding FRGTGFVD, the non-specific binding call is “binds”.

In the case of VRGTGYAS, the non-specific binding call was “binds”.

YRKGDSLD: the non-specific binding call is recorded as “binds”.

YRGRSSWS: the non-specific binding call is “binds”.

Regarding YRGRSSWD, the non-specific binding call is “binds”.

Turning to YRGRSAWF, the non-specific binding call is on record as “binds”.

On to YRGRSAWV, for which the non-specific binding call is listed as “binds”.

Consider YRGRSAWD, for which the non-specific binding call is listed as “binds”.

With YRKGGAWF, the non-specific binding call is “binds”.

Turning to YRKGGAWY, the non-specific binding call is given as “binds”.

In the case of YRKGGAWV, the non-specific binding call is listed as “binds”.

On to VRGRSSLF, for which the non-specific binding call is on record as “binds”.

The record behind these values is the emibetuzumab library of Makowski et al. (2022).
